Assay results published in US20210188933A1.

Target: IL-15RβγC
Assay: cell-based or functional assay

**Q.** For “ALT-803 (IL-15N72D:IL-15RαSu/Fc complex) (from UniProt Q13261 31-95) (Fc fusion)”, which EC50 of ALT-803 stimulated proliferation of IL-15RβγC-bearing cells is on record?
**A.** Its EC50 of ALT-803 stimulated proliferation of IL-15RβγC-bearing cells is 0.016 nM.
